± gives the uncertainty stated by the source.
B1: library; numbered along this chain (parent)
chain: MEVVDPQQLGMFTEGELMSVGMDTFIHRIDSTEVIYQPRRKRAKLIGKYLMGDLLGEGSYGKVKEVLDSETLCRRAVKILKKKKLRRIPNGEANVKKEIQLLRRLRHKNVIQLVDVLYNEEKQKMYMVMEYCVCGMQEMLDSVPEKRFPVCQAHGYFCQLIDGLEYLHSQGIVHKDIKPGNLLLTTGGTLKISDLGVAEALHPFAADDTCRTSQGSPAFQPPEIANGLDTFSGFKVDIWSAGVTLYNITTGLYPFEGDNIYKLFENIGKGSYAIPGDCGPPLSDLLKGMLEYEPAKRFSIRQIRQHSWFRKKHPPAEAPVPIPPSPDTKDRWRSMTVVPYLEDLHGADEDEDLFDIEDDIIYTQDFTVPGQVPEEEASHNGQRRGLPKAVCMNGTEAAQLSTKSRAEGRAPNPARKACSASSKIRRLSACKQQ

Variants of: B1
Experiment: STK11 functional score (HeLa growth suppression), rescaled enrichment; synonymous median = 1, nonsense median = 0 (normalised score)
Details: with HeLa; variant type: missense
Outline: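 The functional score takes the post/pre-selection log ratio, corrects it to wild type, rescales it to synonymous and nonsense medians, and merges it over codons and replicate transfections, with error from bootstrapping. Counts came from tiled gDNA amplicons sequenced on NextSeq (~2 million reads per tile). The libraries were POPCode codon-randomised, codon-optimised STK11 integrated by Bxb1 at an AAVS1 landing pad in HeLa, three regions with three transfections each.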

Row | Variant | STK11 functional score
1 | G135Q | 1.57 ± 0.1
2 | G135S | 1.65 ± 0.17
3 | S299E | 1.56 ± 0.15
4 | Q152C | 1.26 ± 0.19
5 | E407M | 1.58 ± 0.15
6 | Q302F | 1.14 ± 0.5
7 | Q302V | 1.21 ± 0.28
8 | A410Y | 1.38 ± 0.37
9 | A410M | 0.531 ± 0.42
10 | L101R | 1.25 ± 0.2
11 | L101I | 1.06 ± 0.38
12 | K84E | 0.845 ± 0.33
13 | K84T | 0.646 ± 0.11
14 | K84V | 0.24 ± 0.085
15 | L201D | 0.769 ± 0.11
16 | L67R | 0.719 ± 0.45
17 | E14S | 1.34 ± 0.15
18 | I267L | 0.603 ± 0.12
19 | P222A | 0.83 ± 0.2
20 | L9Y | 1.56 ± 0.37
21 | E293G | 0.451 ± 0.27
22 | F366Y | 1.24 ± 0.65
23 | R75D | 1.68 ± 0.28
24 | R75Y | 1.5 ± 0.23

Row | Variant | STK11 functional score
25 | N181P | -0.0573 ± 0.11
26 | N181Y | -0.0251 ± 0.098
27 | N181S | -0.0295 ± 0.073
28 | G270A | 0.849 ± 0.32
29 | G270V | 1.26 ± 0.25
30 | P387T | 1.56 ± 0.24
31 | L344W | 1.54 ± 0.19
32 | L344D | 1.46 ± 0.17
33 | L344A | 1.51 ± 0.15
34 | V368S | 1.1 ± 0.19
35 | V368P | 1.46 ± 0.19
36 | K329L | 1.42 ± 0.25
37 | T186P | 1.52 ± 0.33
38 | T186C | 1.19 ± 0.2
39 | D327N | 1.3 ± 0.64
40 | D141S | 1.21 ± 0.081
41 | K423G | 1.56 ± 0.2
42 | L50S | 1.09 ± 0.12
43 | L50H | 1.08 ± 0.14
44 | G15A | 0.969 ± 0.36
45 | I300A | 1.51 ± 0.15
46 | P38F | 1.31 ± 0.25
47 | F204V | 1.24 ± 0.23
48 | V173R | 0.37 ± 0.16

Row | Variant | STK11 functional score
49 | K82Q | 1.7 ± 0.18
50 | K82A | 1.43 ± 0.15
51 | Q382M | 1.52 ± 0.27
52 | L160E | 0.305 ± 0.092
53 | L160G | -0.0371 ± 0.071
54 | D359R | 1.52 ± 0.19
55 | G180I | 1.41 ± 0.39
56 | L167V | 1.15 ± 0.2
57 | L167G | 0.121 ± 0.079
58 | L167E | -0.113 ± 0.12
59 | A43M | 1.57 ± 0.33
60 | D30G | 1.52 ± 0.3
61 | K175Y | 0.592 ± 0.48
62 | K175V | 0.466 ± 0.1
63 | V372S | 1.44 ± 0.3
64 | C73V | 1.55 ± 0.24
65 | M125K | 1.04 ± 0.67
66 | I238T | 1.31 ± 0.54
67 | P339R | 1.16 ± 0.52
68 | C151W | 0.903 ± 0.12
69 | C151K | 1.67 ± 0.32
70 | D229H | 0.539 ± 0.17
71 | A241T | -0.298 ± 0.45
72 | L195F | 1.46 ± 0.21

Row | Variant | STK11 functional score
73 | A225R | 1.07 ± 0.44
74 | K178E | -0.00538 ± 0.11
75 | P179S | 0.562 ± 0.19
76 | P179I | 0.823 ± 0.39
77 | P179F | 0.0795 ± 0.09
78 | R331I | 1.16 ± 0.2
79 | R331P | 1.54 ± 0.22
80 | R331H | -0.127 ± 0.098
81 | E33D | 1.09 ± 0.39
82 | E130K | 1.36 ± 0.14
83 | E130G | 0.45 ± 0.39
84 | E130Y | 0.104 ± 0.12
85 | Y49V | 0.956 ± 0.099
86 | G251A | 0.598 ± 0.42
87 | V20T | 1.6 ± 0.17
88 | I322S | 1.21 ± 0.24
89 | I35E | 1.66 ± 0.16
90 | G10W | 1.33 ± 0.084
91 | G408I | 1.51 ± 0.14
92 | G408N | 1.54 ± 0.35
93 | G408S | 1.59 ± 0.26
94 | P89Q | 1.4 ± 0.12
95 | S378A | 1.44 ± 0.19
96 | Y36T | 1.04 ± 0.72

Row | Variant | STK11 functional score
97 | Y36M | 0.892 ± 0.31
98 | E351G | 1.33 ± 0.12
99 | G288P | 0.0262 ± 0.088
100 | N109I | 0.256 ± 0.084
101 | L102A | 0.777 ± 0.23
102 | R147G | 1.07 ± 0.086
103 | R74V | 0.653 ± 0.33
104 | V133R | 0.519 ± 0.12
105 | P324A | 1.35 ± 0.15
106 | D207S | 0.778 ± 0.12
107 | A218K | 1.28 ± 0.32
108 | R40K | 1 ± 0.48
109 | K146G | 0.814 ± 0.28
110 | V243A | 0.996 ± 0.097
111 | V243W | 0.598 ± 0.099
112 | K44R | 1.12 ± 0.4
113 | G276L | 1.11 ± 0.21
114 | G171S | 1.41 ± 0.46
115 | K62I | 1.35 ± 0.52
116 | G163T | 0.008 ± 0.28
117 | E138A | 1.09 ± 0.15
118 | E256G | 1.17 ± 0.28
119 | E256C | 0.541 ± 0.33
120 | N393D | 1.07 ± 0.26

Row | Variant | STK11 functional score
121 | P319W | 0.513 ± 0.25
122 | I424V | 1.33 ± 0.23
123 | I424C | 1.35 ± 0.4
124 | T230Q | 1.39 ± 0.22
125 | T32L | 1.16 ± 0.37
126 | F234E | 1.59 ± 0.46
127 | L72A | 0.81 ± 0.3
128 | L72D | 1.51 ± 0.45
129 | L72W | 1.08 ± 0.51
130 | K97V | 0.998 ± 0.2
131 | G385Q | 1.57 ± 0.24
132 | G385T | 1.58 ± 0.21
133 | L164R | -0.302 ± 0.12
134 | H27P | 1.35 ± 0.35
135 | H27Q | 0.792 ± 0.18
136 | E374W | 1.55 ± 0.14
137 | K311G | 1.35 ± 0.23
138 | K311W | 0.995 ± 0.075
139 | A316I | 1.32 ± 0.3
140 | V150A | 0.104 ± 0.15
141 | V150K | 1.36 ± 0.28
142 | D68Q | 0.949 ± 0.48
143 | D68A | 0.846 ± 0.48
144 | N380S | 0.982 ± 0.22

Row | Variant | STK11 functional score
145 | N380Q | 1.47 ± 0.34
146 | M51W | 0.189 ± 0.32
147 | F231T | 1.64 ± 0.39
148 | C132Y | 0.597 ± 0.082
149 | C132W | -0.606 ± 0.08
150 | C430V | 1.03 ± 0.62
151 | W239E | -0.254 ± 0.099
152 | E70P | -0.12 ± 0.11
153 | E70L | 1.03 ± 0.32
154 | N412R | 1.57 ± 0.2
155 | Q220T | 1.67 ± 0.23
156 | A198S | 0.503 ± 0.23
157 | M335R | 1.46 ± 0.3
158 | S307W | 1.47 ± 0.15
159 | G56F | 0.171 ± 0.08
160 | G56R | 0.136 ± 0.092
161 | G279R | 0.829 ± 0.35
162 | G279W | 1.06 ± 0.077
163 | P323L | 0.92 ± 0.24
164 | T24I | 1.02 ± 0.2
165 | L45G | 1.25 ± 0.18
166 | Q100F | 0.976 ± 0.19
167 | Q100R | 1.34 ± 0.13

Reference: the supplement of paper PMC12338614
